Substitutions are numbered along the chain they refer to. Names may count otherwise.
T1: human IL-2 receptor (human, UniProt P01589 22-272; P14784 27-551; P31785 23-369)
T1 sequence (looked up) 1: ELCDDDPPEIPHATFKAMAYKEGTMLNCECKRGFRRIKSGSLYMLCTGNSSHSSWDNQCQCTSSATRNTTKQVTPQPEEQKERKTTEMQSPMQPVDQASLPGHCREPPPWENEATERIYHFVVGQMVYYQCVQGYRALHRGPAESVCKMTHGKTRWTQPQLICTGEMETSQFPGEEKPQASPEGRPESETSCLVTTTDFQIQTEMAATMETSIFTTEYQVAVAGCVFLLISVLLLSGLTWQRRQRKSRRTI
T1 sequence (looked up) 2: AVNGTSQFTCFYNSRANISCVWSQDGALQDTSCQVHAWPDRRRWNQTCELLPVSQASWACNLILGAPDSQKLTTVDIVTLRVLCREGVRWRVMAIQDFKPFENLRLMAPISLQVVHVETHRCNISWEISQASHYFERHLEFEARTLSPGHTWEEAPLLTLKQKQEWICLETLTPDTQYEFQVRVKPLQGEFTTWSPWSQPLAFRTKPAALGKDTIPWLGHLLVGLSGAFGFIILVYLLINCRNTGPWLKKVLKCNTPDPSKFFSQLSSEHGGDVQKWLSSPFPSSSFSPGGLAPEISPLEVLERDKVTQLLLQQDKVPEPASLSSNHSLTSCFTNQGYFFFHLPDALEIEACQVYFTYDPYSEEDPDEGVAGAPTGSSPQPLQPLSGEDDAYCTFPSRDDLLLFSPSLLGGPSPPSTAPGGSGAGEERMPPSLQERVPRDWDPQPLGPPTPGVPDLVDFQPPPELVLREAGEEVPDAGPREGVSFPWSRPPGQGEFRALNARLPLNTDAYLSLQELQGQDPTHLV
T1 sequence (looked up) 3: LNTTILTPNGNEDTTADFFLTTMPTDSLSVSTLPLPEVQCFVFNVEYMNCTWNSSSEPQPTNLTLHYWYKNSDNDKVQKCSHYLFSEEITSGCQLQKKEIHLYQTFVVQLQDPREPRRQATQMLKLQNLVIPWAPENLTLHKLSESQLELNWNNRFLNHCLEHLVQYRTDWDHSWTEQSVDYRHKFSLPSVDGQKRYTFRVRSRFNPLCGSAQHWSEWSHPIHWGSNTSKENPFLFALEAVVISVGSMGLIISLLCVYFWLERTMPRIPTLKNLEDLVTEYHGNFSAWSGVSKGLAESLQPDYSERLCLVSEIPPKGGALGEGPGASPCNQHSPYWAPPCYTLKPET

T2: mouse PD-1 (mouse, UniProt Q02242 25-167, limits assumed)
T2 construct: also called mPD-1
T2 sequence (looked up): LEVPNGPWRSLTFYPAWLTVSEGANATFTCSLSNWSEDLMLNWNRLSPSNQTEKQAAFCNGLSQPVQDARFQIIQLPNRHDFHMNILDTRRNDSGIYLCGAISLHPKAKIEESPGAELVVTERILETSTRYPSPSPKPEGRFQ

B1: IL-2(R38D/K43E/E61R)/PD-L1(mut2)-Fc (Fc fusion)
chain 1: FTVTVPKDLYVVEYGSNMTIECKFPVEKQLDLAALQVYWMMEDKNIIQFVHGEEDLKVQHSSYRQRARLLKDQLSLGNAALQITDVKLQDAGVYTCLIAYKGADYKRITVKVNAPYNKINQRILVVDPVTSEHELTCQAEGYPKAEVIWTSSDHQVLSGKTTTTNSKREEKLFNVTSTLRINTTTNEIFYCTFRRLDPEENHTAELVIPELPLAHPPNERGGGSGAPTSSSTKKTQLQLEHLLLDLQMILNGINNYKNPKLTDMLTFEFYMPKKATELKHLQCLERELKPLEEVLNLAQSKNFHLRPRDLISNINVIVLELKGSETTFMCEYADETATIVEFLNRWITFCQSIISTLTGGGGSGGGDKTHTCPPCPAPEKKGGPSVFLFPPKPKDTLMISRTPEVTCVVVDVSHEDPEVKFNWYVDGVEVHNAKTKPREEQYNSTYRVVSVLTVLHQDWLNGKEYKCKVSNKALPAPIEKTISKAKGQPREPQVYVLPPSREEMTKNQVSLLCLVKGFYPSDIAVEWESNGQPENRYMTWPPVLDSDGSFFLYSKLTVDKSRWQQGNVFSCSVMHEALHNHYTQKSLSLSPGK
chain 2: FTVTVPKDLYVVEYGSNMTIECKFPVEKQLDLAALQVYWMMEDKNIIQFVHGEEDLKVQHSSYRQRARLLKDQLSLGNAALQITDVKLQDAGVYTCLIAYKGADYKRITVKVNAPYNKINQRILVVDPVTSEHELTCQAEGYPKAEVIWTSSDHQVLSGKTTTTNSKREEKLFNVTSTLRINTTTNEIFYCTFRRLDPEENHTAELVIPELPLAHPPNERGGGGSGGGDKTHTCPPCPAPEDEGGPSVFLFPPKPKDTLMISRTPEVTCVVVDVSHEDPEVKFNWYVDGVEVHNAKTKPREEQYNSTYRVVSVLTVLHQDWLNGKEYKCKVSNKALPAPIEKTISKAKGQPREPQVYVYPPSREEMTKNQVSLTCLVKGFYPSDIAVEWESNGQPENNYKTTPPVLDEDGSFALVSKLTVDKSRWQQGNVFSCSVMHEALHNHYTQKSLSLSPGK
B2: IL-2(L18R/Q22E/R38D/K43E/E61R)/PD-L1(mut2)-Fc (Fc fusion)
chain 1: B1 chain 1 with L243R, Q247E
chain 2: B1 chain 2
B3: IL-2(L18R/Q22E/R38D/K43E/E61R/Q126T)/PD-L1(mut2)-Fc (Fc fusion)
chain 1: B1 chain 1 with L243R, Q247E, Q351T
chain 2: B1 chain 2
B4: IL-2(R38D/K43E/E61R/Q126T)/PD-L1(mut2)-Fc (Fc fusion)
chain 1: B1 chain 1 with Q351T
chain 2: B1 chain 2
B5: PD-L1(mut2)-Fc/IL-12(E59A/F60A) (Fc fusion)
chain 1: FTVTVPKDLYVVEYGSNMTIECKFPVEKQLDLAALQVYWMMEDKNIIQFVHGEEDLKVQHSSYRQRARLLKDQLSLGNAALQITDVKLQDAGVYTCLIAYKGADYKRITVKVNAPYNKINQRILVVDPVTSEHELTCQAEGYPKAEVIWTSSDHQVLSGKTTTTNSKREEKLFNVTSTLRINTTTNEIFYCTFRRLDPEENHTAELVIPELPLAHPPNERGGGGSGGGDKTHTCPPCPAPEDEGGPSVFLFPPKPKDTLMISRTPEVTCVVVDVSHEDPEVKFNWYVDGVEVHNAKTKPREEQYNSTYRVVSVLTVLHQDWLNGKEYKCKVSNKALPAPIEKTISKAKGQPREPQVYVYPPSREEMTKNQVSLTCLVKGFYPSDIAVEWESNGQPENNYKTTPPVLDEDGSFALVSKLTVDKSRWQQGNVFSCSVMHEALHNHYTQKSLSLSPGKGGGGSGGGIWELKKDVYVVELDWYPDAPGEMVVLTCDTPEEDGITWTLDQSSEVLGSGKTLTIQVKAAGDAGQYTCHKGGEVLSHSLLLLHKKEDGIWSTDILKDQKEPKNKTFLRCEAKNYSGRFTCWWLTTISTDLTFSVKSSRGSSDPQGVTCGAATLSAERVRGDNKEYEYSVECQEDSACPAAEESLPIEVMVDAVHKLKYENYTSSFFIRDIIKPDPPKNLQLKPLKNSRQVEVSWEYPDTWSTPHSYFSLTFCVQVQGKSKREKKDRVFTDKTSATVICRKNASISVRAQDRYYSSSWSEWASVPCSGGGGSGGGSGGGGSRNLPVATPDPGMFPCLHHSQNLLRAVSNMLQKARQTLEFYPCTSEEIDHEDITKDKTSTVEACLPLELTKNESCLNSRETSFITNGSCLASRKTSFMMALCLSSIYEDLKMYQVEFKTMNAKLLMDPKRQIFLDQNMLAVIDELMQALNFNSETVPQKSSLEEPDFYKTKIKLCILLHAFRIRAVTIDRVMSYLNAS
chain 2: B1 chain 2 with D242K, E243K, Y359L, T374L, N398R, K400M, T402W, E408S, A413F, V415Y
B6: PD-L1(mut2)-Fc (Fc fusion)
chain 1: B1 chain 2
chain 2: B1 chain 2 with D242K, E243K, Y359L, T374L, N398R, K400M, T402W, E408S, A413F, V415Y
notes: also called PD-L1(I54Q/E58M/R113T/M115L/S117A/G119K)
B7: PD-L1(mut3)-Fc (Fc fusion)
chain 1: FTVTVPKDLYVVEYGSNMTIECKFPVEKQLDLAALQVYWEMEDKNIIQFVHGEEDLKVQHSSYRQRARLLKDQLSLGNAALQITDVKLQDAGVYTCLIAYKGADYKRITVKVNAPYNKINQRILVVDPVTSEHELTCQAEGYPKAEVIWTSSDHQVLSGKTTTTNSKREEKLFNVTSTLRINTTTNEIFYCTFRRLDPEENHTAELVIPELPLAHPPNERDKTHTCPPCPAPEDEGGPSVFLFPPKPKDTLMISRTPEVTCVVVDVSHEDPEVKFNWYVDGVEVHNAKTKPREEQYNSTYRVVSVLTVLHQDWLNGKEYKCKVSNKALPAPIEKTISKAKGQPREPQVYVYPPSREEMTKNQVSLTCLVKGFYPSDIAVEWESNGQPENNYKTTPPVLDEDGSFALVSKLTVDKSRWQQGNVFSCSVMHEALHNHYTQKSLSLSPGK
chain 2: B7 chain 1 with D234K, E235K, Y351L, T366L, N390R, K392M, T394W, E400S, A405F, V407Y
notes: also called I54Q/R113T/M115L/S117A/G119K
B8: PD-L1(mut5)-Fc (Fc fusion)
chain 1: B7 chain 1 with E40M, L97M
chain 2: FTVTVPKDLYVVEYGSNMTIECKFPVEKQLDLAALQVYWMMEDKNIIQFVHGEEDLKVQHSSYRQRARLLKDQLSLGNAALQITDVKLQDAGVYTCMIAYKGADYKRITVKVNAPYNKINQRILVVDPVTSEHELTCQAEGYPKAEVIWTSSDHQVLSGKTTTTNSKREEKLFNVTSTLRINTTTNEIFYCTFRRLDPEENHTAELVIPELPLAHPPNERDKTHTCPPCPAPEKKGGPSVFLFPPKPKDTLMISRTPEVTCVVVDVSHEDPEVKFNWYVDGVEVHNAKTKPREEQYNSTYRVVSVLTVLHQDWLNGKEYKCKVSNKALPAPIEKTISKAKGQPREPQVYVLPPSREEMTKNQVSLLCLVKGFYPSDIAVEWESNGQPENRYMTWPPVLDSDGSFFLYSKLTVDKSRWQQGNVFSCSVMHEALHNHYTQKSLSLSPGK
notes: also called I54Q/E58M/R113T/S117A/G119K
B9: PD-L1(mut4)-Fc (Fc fusion)
chain 1: B7 chain 1 with E40M, T95R
chain 2: B8 chain 2 with T95R, M97L
notes: also called I54Q/E58M/M115L/S117A/G119K
B10: PD-L1(mut6)-Fc (Fc fusion)
chain 1: B7 chain 1 with E40M, A99S
chain 2: B8 chain 2 with M97L, A99S
notes: also called PD-L1(I54Q/E58M/R113T/M115L/G119K)
B11: PD-L1(mut7)-Fc (Fc fusion)
chain 1: B7 chain 1 with E40M, K101G
chain 2: B8 chain 2 with M97L, K101G
notes: also called PD-L1(I54Q/E58M/R113T/M115L/S117A)

Molecular target: T3, human PD-1 overexpressed on HEK-Blue reporter cells (human, UniProt Q15116 25-288)
T3 sequence (Q15116 25-288): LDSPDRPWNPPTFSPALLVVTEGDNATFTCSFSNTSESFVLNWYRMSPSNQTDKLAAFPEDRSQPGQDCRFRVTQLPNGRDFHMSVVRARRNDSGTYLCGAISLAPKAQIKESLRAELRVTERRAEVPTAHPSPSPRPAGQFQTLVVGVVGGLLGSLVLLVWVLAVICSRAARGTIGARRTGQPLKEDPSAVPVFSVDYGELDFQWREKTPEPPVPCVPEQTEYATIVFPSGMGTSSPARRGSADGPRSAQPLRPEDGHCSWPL
Assay: cell-based or functional assay

| IL-2 signal transduction, % of rIL2, HEK-IL-2-PD-1 cells [%] | Binder |
| --- | --- |
| 76 | B1 |
| 35 | B2 |
| 5 | B3 |
| 20 | B4 |

Molecular target: T1, human IL-2 receptor
Assay: cell-based or functional assay

| IL-2 signal transduction, % of rIL2, HEK-IL-2 cells [%] | Binder |
| --- | --- |
| 16 | B1 |
| 4 | B2 |
| < 0.1 | B3 |
| 2 | B4 |

Molecular target: T3, human PD-1 overexpressed on HEK-Blue …
Assay: cell-based or functional assay
Remark: another data set of the same source

| IL-12 signal transduction, % of rIL-12, HEK-IL-12-PD-1 cells [%] | Binder |
| --- | --- |
| 25 | B5 |

Molecular target: human IL-12 receptor complex (human, UniProt P42701 24-662; Q99665 24-862)
Sequence (Q99665 24-862, chain 2 of 2, other chains not shown): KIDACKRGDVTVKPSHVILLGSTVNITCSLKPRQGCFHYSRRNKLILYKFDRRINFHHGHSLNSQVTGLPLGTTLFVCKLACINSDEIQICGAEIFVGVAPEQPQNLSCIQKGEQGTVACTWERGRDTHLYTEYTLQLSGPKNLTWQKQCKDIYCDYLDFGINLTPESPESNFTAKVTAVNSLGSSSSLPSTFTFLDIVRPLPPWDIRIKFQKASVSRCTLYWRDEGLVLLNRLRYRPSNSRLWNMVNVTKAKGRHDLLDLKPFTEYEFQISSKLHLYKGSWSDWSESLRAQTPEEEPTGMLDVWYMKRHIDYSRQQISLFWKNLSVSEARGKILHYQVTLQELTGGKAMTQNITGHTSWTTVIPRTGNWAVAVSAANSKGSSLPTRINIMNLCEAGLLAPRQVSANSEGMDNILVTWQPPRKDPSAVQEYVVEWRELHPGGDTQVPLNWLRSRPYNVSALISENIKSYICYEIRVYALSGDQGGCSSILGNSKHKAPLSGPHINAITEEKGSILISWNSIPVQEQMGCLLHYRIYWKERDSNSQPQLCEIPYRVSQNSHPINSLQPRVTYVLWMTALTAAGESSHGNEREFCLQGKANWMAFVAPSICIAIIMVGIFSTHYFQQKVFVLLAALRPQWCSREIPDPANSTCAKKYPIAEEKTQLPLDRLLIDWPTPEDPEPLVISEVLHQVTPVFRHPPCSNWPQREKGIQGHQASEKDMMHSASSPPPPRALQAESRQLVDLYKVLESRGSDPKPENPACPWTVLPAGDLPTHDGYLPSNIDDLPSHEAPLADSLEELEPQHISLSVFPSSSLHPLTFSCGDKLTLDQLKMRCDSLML
Assay: cell-based or functional assay

| IL-12 signal transduction, % of rIL-12, HEK-IL-12 cells [%] | Binder |
| --- | --- |
| 1 | B5 |

Molecular target: T4, human PD-1 (human, UniProt Q15116 25-167, limits assumed)
T4 construct: nivolumab is called an anti-human PD-1 antibody; also called hPD-1
T4 sequence (Q15116 25-167 limits assumed): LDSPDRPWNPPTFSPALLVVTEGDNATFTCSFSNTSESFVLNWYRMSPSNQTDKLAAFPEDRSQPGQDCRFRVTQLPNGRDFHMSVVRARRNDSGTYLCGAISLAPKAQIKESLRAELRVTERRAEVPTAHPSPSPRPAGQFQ
Assay: PD-L1-Fc format, calibrated on PD-L1(wt)-Fc binding affinity

| Kd [nM] | Binder |
| --- | --- |
| 150 | B6 |
| 910 | B7 |
| 1200 | B8 |
| 1090 | B9 |
| 555 | B10 |
| 98 | B11 |

Molecular target: T2, mouse PD-1
Assay: as above

| Kd [nM] | Binder |
| --- | --- |
| 120 | B6 |
| 820 | B7 |
| 1100 | B8 |
| 980 | B9 |
| 420 | B10 |
| 110 | B11 |
